Laboratory results published in IntAct's records for PubMed 38141762.

B1: Mitochondrial association factor 1 form b1 (Toxoplasma gondii), A0A140H546 (parent)
chain: MWRIWRCRLSFLFATGCLLGALTAGLGSQMSDSVGRNVQAPAGVADASQEAGDVVEERTERTEEQAFALGPPRRHSSESLFPRNASVTARRRRNRRIALIATAVGVAVILAAVYVLRRRRAQRPQDPEPPAPRSVEDPEVLPEEDEASSSLPPPPPPSPPPPPPVEDPLSPESQTVDLSCLSGTTVRFFGPSHHFGGFTPLYDPAPDKRVATVDAGANALFIGGGGLNGQFAKTLLEEAEKHGIRLTPEELSQHSQRIQQSLLRRAVKSPGKLVELDTGVASPVFARSFGFVPVVPGLMWEESEVGPNVGVTFVHILKPEVTPYGNLNNNVMMYTVAPSGAAPDKTYSLAYKTTIAGVIGAAAAYNDTPAGQQYPVQGLRLPLLGGGIFRRNRSLESIGRANAEGTSLAITRYGPNFELQYMYDPSNAALHGLQEAESTYLASMLD

Variants of: B1
Settings: with RALGAPA1, Q6GYQ0-1
RALGAPA1, Q6GYQ0-1, sequence (Q6GYQ0 whole entry): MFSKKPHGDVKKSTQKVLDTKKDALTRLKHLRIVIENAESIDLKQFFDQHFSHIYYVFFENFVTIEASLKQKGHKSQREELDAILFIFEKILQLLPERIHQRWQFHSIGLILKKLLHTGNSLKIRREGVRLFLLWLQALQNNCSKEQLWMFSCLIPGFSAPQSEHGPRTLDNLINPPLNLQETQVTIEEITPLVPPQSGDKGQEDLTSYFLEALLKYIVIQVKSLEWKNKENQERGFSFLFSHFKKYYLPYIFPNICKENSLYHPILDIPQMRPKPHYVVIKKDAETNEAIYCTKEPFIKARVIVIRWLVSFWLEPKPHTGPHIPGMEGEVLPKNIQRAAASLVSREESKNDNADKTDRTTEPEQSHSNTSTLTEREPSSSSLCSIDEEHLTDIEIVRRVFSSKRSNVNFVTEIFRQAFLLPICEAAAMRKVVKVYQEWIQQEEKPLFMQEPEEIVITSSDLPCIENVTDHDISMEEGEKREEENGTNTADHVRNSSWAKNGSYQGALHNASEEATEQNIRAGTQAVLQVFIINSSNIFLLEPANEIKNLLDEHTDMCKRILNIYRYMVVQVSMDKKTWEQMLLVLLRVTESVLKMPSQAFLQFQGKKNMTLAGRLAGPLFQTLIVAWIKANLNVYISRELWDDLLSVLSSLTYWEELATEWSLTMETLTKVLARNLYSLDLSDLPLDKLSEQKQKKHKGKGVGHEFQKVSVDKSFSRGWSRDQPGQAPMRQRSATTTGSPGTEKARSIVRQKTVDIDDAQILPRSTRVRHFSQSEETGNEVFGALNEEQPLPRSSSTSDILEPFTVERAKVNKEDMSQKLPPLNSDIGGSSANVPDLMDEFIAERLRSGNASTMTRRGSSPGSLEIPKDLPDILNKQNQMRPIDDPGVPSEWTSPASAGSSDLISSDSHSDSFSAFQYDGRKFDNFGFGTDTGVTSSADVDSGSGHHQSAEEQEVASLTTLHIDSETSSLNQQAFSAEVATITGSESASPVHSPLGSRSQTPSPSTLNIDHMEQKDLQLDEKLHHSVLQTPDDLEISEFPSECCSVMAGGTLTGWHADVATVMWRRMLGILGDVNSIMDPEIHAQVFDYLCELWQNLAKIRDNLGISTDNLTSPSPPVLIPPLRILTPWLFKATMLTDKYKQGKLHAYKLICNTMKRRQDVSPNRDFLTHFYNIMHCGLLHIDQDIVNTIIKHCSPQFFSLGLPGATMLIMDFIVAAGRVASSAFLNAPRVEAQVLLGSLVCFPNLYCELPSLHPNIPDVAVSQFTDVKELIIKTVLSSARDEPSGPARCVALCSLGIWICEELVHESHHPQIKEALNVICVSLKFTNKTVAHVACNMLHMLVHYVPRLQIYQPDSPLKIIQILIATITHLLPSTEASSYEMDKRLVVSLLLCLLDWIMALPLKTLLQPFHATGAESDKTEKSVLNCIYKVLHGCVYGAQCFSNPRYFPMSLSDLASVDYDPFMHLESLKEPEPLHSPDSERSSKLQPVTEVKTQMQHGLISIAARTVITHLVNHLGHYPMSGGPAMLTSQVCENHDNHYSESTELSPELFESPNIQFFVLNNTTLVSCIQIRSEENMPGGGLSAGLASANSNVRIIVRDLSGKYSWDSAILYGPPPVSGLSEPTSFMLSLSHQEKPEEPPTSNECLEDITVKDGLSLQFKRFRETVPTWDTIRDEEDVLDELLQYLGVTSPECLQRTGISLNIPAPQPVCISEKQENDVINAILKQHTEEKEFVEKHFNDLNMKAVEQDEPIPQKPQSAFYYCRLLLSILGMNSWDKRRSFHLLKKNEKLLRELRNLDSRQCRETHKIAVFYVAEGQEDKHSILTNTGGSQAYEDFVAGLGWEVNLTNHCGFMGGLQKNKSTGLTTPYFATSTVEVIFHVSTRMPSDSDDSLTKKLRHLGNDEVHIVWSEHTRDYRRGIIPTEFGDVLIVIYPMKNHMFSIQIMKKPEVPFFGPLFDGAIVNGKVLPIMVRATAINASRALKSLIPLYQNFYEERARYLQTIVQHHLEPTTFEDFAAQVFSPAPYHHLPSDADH

Variant | effect of a mutation on the interaction
MWRIWRCRLSFLFATGCLLGALTAGLGSQMSDSVGRNVQAPAGVADASQEAGDVVEERTERTEEQAFALGPPRRHSSESLFPRNASVTARRRRNRRIALIATAVGVAVILAAVYVLRRRRAQRPQDPEPPAPRSVEDPEVLPEEDEASSSLPPPPPPSPPPPPPVEDPLSPESQTVDLSCLSGTTVRFFGPSHHFGGFTPLYDPAPDKRVATVDAGANALFIGGGGLNGQFAKTLLEEAEKHGIRLTPEELSQHSQRIQQSLLRRAVKSPGKLVELDTGVASRVFARSFGFVPVVPGLMWEESEVGPNVGVTFVHILKPEVTPYGNLNNNVMMYTVAPSGAAPDKTYSLAYKTTIAGVIGAAAAYNDTPAGQQYPVQGLRLPLLGGGIFRRNRSLESIGRANAEGTSLAITRYGPNFELQYMYDPSNAALHGLQEAESTYLASMLD [P283R] | disrupting interaction strength
MWRIWRCRLSFLFATGCLLGALTAGLGSQMSDSVGRNVQAPAGVADASQEAGDVVEERTERTEEQAFALGPPRRHSSESLFPRNASVTARRRRNRRIALIATAVGVAVILAAVYVLRRRRAQRPQDPEPPAPRSVEDPEVLPEEDEASSSLPPPPPPSPPPPPPVEDPLSPESQTVDLSCLSGTTVRFFGPSHHFGGFTPLYDPAPDKRVATVDAGANALFIGGGGLNGQFAKTLLEEAEKHGIRLTPEELSQHSQRIQQSLLRRAVKSPGKLVELDTGVFSPVFARSFGFVPVVPGLMWEESEVGPNVGVTFVHILKPEVTPYGNLNNNVMMYTVAPSGAAPDKTYSLAYKTTIAGVIGAAAAYNDTPAGQQYPVQGLRLPLLGGGIFRRNRSLESIGRANAEGTSLAITRYGPNFELQYMYDPSNAALHGLQEAESTYLASMLD [A281F] | disrupting interaction strength
MWRIWRCRLSFLFATGCLLGALTAGLGSQMSDSVGRNVQAPAGVADASQEAGDVVEERTERTEEQAFALGPPRRHSSESLFPRNASVTARRRRNRRIALIATAVGVAVILAAVYVLRRRRAQRPQDPEPPAPRSVEDPEVLPEEDEASSSLPPPPPPSPPPPPPVEDPLSPESQTVDLSCLSGTTVRFFGPSHHFGGFTPLYDPAPDKRVATVDAGANALFIGGGGLNGQFAKTLLEEAEKHGIRLTPEELSQHSQRIQQSLLRRAVKSPGKLVELDTGVASPVFARSFGFVPVVPGLMWEESEVGPNVGVTFVHILKPEVTPYGNLNNNVMMYTVAPSGAAPDKTYSLAYKTTIAGVIGAAAAYNDTPAGQQYPVQGLRLPLLGGGIFRRNRSLESIGRANAEGTSLAITRYGPNFELQYMYDPSNAALHGLQEAERTYKASMLD [S438R;L441K] | with no effect
MWRIWRCRLSFLFATGCLLGALTAGLGSQMSDSVGRNVQAPAGVADASQEAGDVVEERTERTEEQAFALGPPRRHSSESLFPRNASVTARRRRNRRIALIATAVGVAVILAAVYVLRRRRAQRPQDPEPPAPRSVEDPEVLPEEDEASSSLPPPPPPSPPPPPPVEDPLSPESQTVDLSCLSGTTVRFFGPSHHFGGFTPLYDPAPDKRVATVDAGANALFIGGGGLNGQFAKTLLEEAEKHGIRLTPEELSQHSQRIQQSLLRRAVKSPGKLVELDTGVASPVFARSFGFVPVVPGLMWEESEVGPNVGVTFVHILKPEVTPYGNLNNNVMMYTVAPSGAAPDKTYSLAYKTTIAGVIGAAAAYNDTPAGQQYPVQGLRLPLLGGGIFRRNRSLESIGRANAEGTSLAITRYGPNFELQYMYDPSNAALHGLQEAERKYKASMLD [S438R;T439K;L441K] | with no effect
MWRIWRCRLSFLFATGCLLGALTAGLGSQMSDSVGRNVQAPAGVADASQEAGDVVEERTERTEEQAFALGPPRRHSSESLFPRNASVTARRRRNRRIALIATAVGVAVILAAVYVLRRRRAQRPQDPEPPAPRSVEDPEVLPEEDEASSSLPPPPPPSPPPPPPVEDPLSPESQTVDLSCLSGTTVRFFGPSHHFGGFTPLYDPAPDKRVATVDAGANALFIGGGGLNGQFAKTLLEEAEKHGIRLTPEELSQHSQRIQQSLLRRAVKSPGKLVELDTGRASPVFARSFGFVPVVPGLMWEESEVGPNVGVTFVHILKPEVTPYGNLNNNVMMYTVAPSGAAPDKTYSLAYKTTIAGVIGAAAAYNDTPAGQQYPVQGLRLPLLGGGIFRRNRSLESIGRANAEGTSLAITRYGPNFELQYMYDPSNAALHGLQEAESTYLASMLD [V280R] | disrupting interaction strength

Variants of: B1
Settings: with RALGAPA1, Q6GYQ0-1
Remark: another data set of the same source

Variant | effect of a mutation on the interaction
MWRIWRCRLSFLFATGCLLGALTAGLGSQMSDSVGRNVQAPAGVADASQEAGDVVEERTERTEEQAFALGPPRRHSSESLFPRNASVTARRRRNRRIALIATAVGVAVILAAVYVLRRRRAQRPQDPEPPAPRSVEDPEVLPEEDEASSSLPPPPPPSPPPPPPVEDPLSPESQTVDLSCLSGTTVRFFGPSHHFGGFTPLYDPAPDKRVATVDAGANALFIGGGGLNGQFAKTLLEEAEKHGIRLTPEELSQHSQRIQQSLLRRAVKSPGKLVELDTGVASPVFARSFGFVPVVPGLMWEESEVGPNVGVTFVHILKPEVTPYGNLNNNVMMYTVAPSGAAPDKTYSLAYKTTIAGVIGAAAAYNDTPAGQQYPVQGLRLPLLGGGIFRRNRSLESIGRANAEGTSLAITRYGPNFELQYMYDPSNAALHGLQEAERTYKASMLD [S438R;L441K] | decreasing interaction strength
MWRIWRCRLSFLFATGCLLGALTAGLGSQMSDSVGRNVQAPAGVADASQEAGDVVEERTERTEEQAFALGPPRRHSSESLFPRNASVTARRRRNRRIALIATAVGVAVILAAVYVLRRRRAQRPQDPEPPAPRSVEDPEVLPEEDEASSSLPPPPPPSPPPPPPVEDPLSPESQTVDLSCLSGTTVRFFGPSHHFGGFTPLYDPAPDKRVATVDAGANALFIGGGGLNGQFAKTLLEEAEKHGIRLTPEELSQHSQRIQQSLLRRAVKSPGKLVELDTGVASPVFARSFGFVPVVPGLMWEESEVGPNVGVTFVHILKPEVTPYGNLNNNVMMYTVAPSGAAPDKTYSLAYKTTIAGVIGAAAAYNDTPAGQQYPVQGLRLPLLGGGIFRRNRSLESIGRANAEGTSLAITRYGPNFELQYMYDPSNAALHGLQEAERKYKASMLD [S438R;T439K;L441K] | decreasing interaction strength
